# Measured values published in PMC10507807, “De novo design of a stapled peptide targeting SARS-CoV-2 spike protein receptor-binding domain” (RSC Medicinal Chemistry, 2023).
# Biological target: recombinant SARS-CoV-2 spike B.1.617.2 with His-tag (SARS-CoV-2), P0DTC2
# Assay: BLI
binder,measurement,value
"GTEWLYKVWKAFVDNMS (designed binder, modifications not checked) [stapled peptide pep39]",Kd,4.1 µM
